According to patent publication US20180230220A1 (Amgen, published 2018):

B1: anti-FOLR1/CD3 Bi-Fc (bispecific antibody)
chain 1: not shown
chain 2: HMSSVSAQAAAEPKSSDKTHTCPPCPAPEAAGGPSVFLFPPKPKDTLMISRTPEVTCVVVDVSHEDPEVKFNWYVDGVEVHNAKTKPREEQYNSTYRVVSVLTVLHQDWLNGKEYKCKVSNKALPAPIEKTISKAKGQPREPQVYTLPPSREEMTKNQVSLTCLVKGFYPSDIAVEWESNGQPENNYDTTPPVLDSDGSFFLYSDLTVDKSRWQQGNVFSCSVMHEALHNHYTQKSLSLSPGK
B2: anti-HER2/CD3 Bi-Fc (bispecific antibody)
chain 1: not shown
chain 2: B1 chain 2

Key:
Assay in all cases: cell-based or functional assay
[1] = molecular target: T1, FOLR1 (human, UniProt P15328 25-234)
T1 sequence (P15328 25-234): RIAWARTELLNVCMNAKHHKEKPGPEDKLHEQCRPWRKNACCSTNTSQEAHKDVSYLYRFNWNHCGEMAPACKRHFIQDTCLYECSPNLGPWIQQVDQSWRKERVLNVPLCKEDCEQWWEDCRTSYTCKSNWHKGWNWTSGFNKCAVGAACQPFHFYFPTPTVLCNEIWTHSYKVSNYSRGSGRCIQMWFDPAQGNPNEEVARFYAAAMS

[2] = molecular target: T1, FOLR1; remark: listed apart in the source
[3] = molecular target: T2, HER2 (human, UniProt P04626 23-1255)
[4] = molecular target: T2, HER2; remark: listed apart in the source

Row | Binder | EC50 (pM), T cell-dependent cell cytolysis (TDCC), Cal-51 cells [1] [pM] | EC50 (pM), T cell-dependent cell cytolysis (TDCC), T47D cells [1] [pM] | EC50 (pM) for eliciting IFN-γ secretion by T cells, T47D cells [2] [pM] | EC50 (pM) for eliciting IL-2 secretion by T cells, T47D cells [2] [pM] | EC50 (pM) for eliciting IL-10 secretion by T cells, T47D cells [2] [pM] | EC50 (pM) for eliciting IL-13 secretion by T cells, T47D cells [2] [pM] | EC50 (pM) for eliciting TNF-α secretion by T cells, T47D cells [2] [pM] | EC50 (pM), T cell-dependent cell cytolysis (TDCC), JIMT-1 cells [3] [pM] | EC50 (pM), T cell-dependent cell cytolysis (TDCC), T47D cells [3] [pM] | EC50 (pM) for eliciting IFN-γ secretion by T cells, JIMT-1 cells [4] [pM] | EC50 (pM) for eliciting IL-2 secretion by T cells, JIMT-1 cells [4] [pM] | EC50 (pM) for eliciting IL-10 secretion by T cells, JIMT-1 cells [4] [pM] | EC50 (pM) for eliciting IL-13 secretion by T cells, JIMT-1 cells [4] [pM] | EC50 (pM) for eliciting TNF-α secretion by T cells, JIMT-1 cells [4] [pM]
1 | B1 | 1.27 | 1.35 | 48.6 | 67.3 | 110 | 127 | 41.2 |  |  |  |  |  |  | 
2 | B2 |  |  |  |  |  |  |  | 11.5 | 1.03 | 32.9 | 22.3 | 9.6 | 16.4 | 19.5
